Experimental data reported in patent US7052908B2, “Androgen receptor coactivators” (University of Rochester, priority 1998, dated 2006).

Legend:
[1] = target: T1, wtAR (Homo sapiens, UniProt P10275); assay: AR transactivation, transient transfection with MMTV-CAT reporter in DU145 cells
T1 sequence (P10275 1-920): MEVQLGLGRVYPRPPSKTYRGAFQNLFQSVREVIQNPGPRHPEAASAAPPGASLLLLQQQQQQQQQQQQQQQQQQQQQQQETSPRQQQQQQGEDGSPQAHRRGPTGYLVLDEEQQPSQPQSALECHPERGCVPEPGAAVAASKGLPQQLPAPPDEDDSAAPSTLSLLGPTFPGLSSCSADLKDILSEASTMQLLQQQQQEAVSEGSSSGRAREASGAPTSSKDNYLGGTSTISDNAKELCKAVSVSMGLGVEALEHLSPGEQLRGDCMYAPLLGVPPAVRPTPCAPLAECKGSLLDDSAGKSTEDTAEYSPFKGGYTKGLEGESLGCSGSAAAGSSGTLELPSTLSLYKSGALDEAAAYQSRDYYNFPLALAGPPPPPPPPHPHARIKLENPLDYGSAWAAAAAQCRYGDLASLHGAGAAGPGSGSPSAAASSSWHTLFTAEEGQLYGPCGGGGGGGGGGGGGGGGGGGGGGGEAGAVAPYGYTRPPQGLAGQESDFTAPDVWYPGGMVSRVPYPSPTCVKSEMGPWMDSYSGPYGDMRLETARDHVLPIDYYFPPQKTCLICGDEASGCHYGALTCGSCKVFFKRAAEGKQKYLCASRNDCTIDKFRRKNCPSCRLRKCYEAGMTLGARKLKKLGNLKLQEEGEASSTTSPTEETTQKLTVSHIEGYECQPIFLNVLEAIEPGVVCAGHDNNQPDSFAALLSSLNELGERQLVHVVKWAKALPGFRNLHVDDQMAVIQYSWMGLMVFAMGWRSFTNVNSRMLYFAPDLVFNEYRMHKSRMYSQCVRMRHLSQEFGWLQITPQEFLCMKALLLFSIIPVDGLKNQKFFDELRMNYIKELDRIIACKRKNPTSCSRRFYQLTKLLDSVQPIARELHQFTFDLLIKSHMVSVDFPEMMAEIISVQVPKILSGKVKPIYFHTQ

[2] = target: T2, estrogen receptor (ER) (Homo sapiens, UniProt P03372); assay: Steroid receptor transactivation, ERE-CAT reporter in DU145 cells; assay type: cell-based; conditions: DU145
T2 construct: expressed in transfected cells; host or cells: DU145
T2 sequence (P03372 1-595): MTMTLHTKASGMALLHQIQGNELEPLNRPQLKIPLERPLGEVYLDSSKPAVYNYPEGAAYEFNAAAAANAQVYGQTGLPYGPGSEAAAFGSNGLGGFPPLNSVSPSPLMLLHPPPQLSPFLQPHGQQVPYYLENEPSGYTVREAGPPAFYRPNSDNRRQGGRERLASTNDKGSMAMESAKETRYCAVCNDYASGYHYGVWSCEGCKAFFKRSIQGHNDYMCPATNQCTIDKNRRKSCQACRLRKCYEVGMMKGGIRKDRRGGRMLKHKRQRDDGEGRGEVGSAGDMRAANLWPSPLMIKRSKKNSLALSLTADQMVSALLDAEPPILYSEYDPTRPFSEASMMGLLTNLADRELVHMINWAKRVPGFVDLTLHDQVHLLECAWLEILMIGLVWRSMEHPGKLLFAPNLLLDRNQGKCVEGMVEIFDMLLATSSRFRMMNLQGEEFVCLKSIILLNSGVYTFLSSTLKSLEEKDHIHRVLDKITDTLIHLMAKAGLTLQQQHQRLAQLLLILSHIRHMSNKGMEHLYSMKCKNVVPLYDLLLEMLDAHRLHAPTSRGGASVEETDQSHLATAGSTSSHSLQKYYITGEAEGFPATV

[3] = target: T3, progesterone receptor (PR) (Homo sapiens, UniProt P06401); assay: Steroid receptor transactivation, MMTV-CAT reporter in DU145 cells; assay type: cell-based; conditions: DU145, relative to AR
T3 construct: expressed in transfected cells; host or cells: DU145
T3 sequence (P06401 1-933): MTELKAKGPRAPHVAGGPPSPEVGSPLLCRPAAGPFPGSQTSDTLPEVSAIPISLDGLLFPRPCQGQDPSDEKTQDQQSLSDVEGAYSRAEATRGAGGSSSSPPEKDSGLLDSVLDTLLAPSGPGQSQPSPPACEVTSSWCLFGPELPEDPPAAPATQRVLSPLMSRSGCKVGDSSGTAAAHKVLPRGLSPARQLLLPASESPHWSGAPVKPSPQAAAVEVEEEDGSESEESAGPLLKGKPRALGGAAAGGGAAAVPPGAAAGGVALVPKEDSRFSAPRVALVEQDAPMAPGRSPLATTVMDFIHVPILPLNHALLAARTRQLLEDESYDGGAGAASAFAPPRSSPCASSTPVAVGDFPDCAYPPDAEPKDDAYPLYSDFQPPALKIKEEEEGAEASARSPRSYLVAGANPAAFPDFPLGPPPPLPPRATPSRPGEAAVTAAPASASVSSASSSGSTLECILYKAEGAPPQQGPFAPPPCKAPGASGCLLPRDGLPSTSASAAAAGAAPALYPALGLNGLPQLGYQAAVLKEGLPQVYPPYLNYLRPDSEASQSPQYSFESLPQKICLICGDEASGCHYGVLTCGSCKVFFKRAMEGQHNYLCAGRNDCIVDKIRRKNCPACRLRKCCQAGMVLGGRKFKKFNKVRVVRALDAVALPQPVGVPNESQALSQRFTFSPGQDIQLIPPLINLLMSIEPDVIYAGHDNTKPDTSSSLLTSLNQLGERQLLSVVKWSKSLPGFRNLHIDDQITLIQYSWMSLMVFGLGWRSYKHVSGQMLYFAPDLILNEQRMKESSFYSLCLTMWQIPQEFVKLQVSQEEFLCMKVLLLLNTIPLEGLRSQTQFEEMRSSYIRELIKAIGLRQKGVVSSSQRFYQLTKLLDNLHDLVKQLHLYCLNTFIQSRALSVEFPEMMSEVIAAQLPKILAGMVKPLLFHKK

B1: ARA55: androgen receptor coactivator, 444 aa, SEQ ID NO:4, 91% homology with mouse hic5 (protein)
chain: MPRSGAPKERPAEPLTPPPSYGHQPTGQSGESSGASGDKDHLYSTVCKPRSPKPAAPAAPPFSSSSGVLGTGLCELDRLLQELNATQFNITDEIMSQFPSSKVASGEQKEDQSEDKKRPSLPSSPSPGLPKASATSATLELDRLMASLPDFRVQNHLPASGPTQPPVVSSTNEGSPSPPEPTAKGSLDTMLGLLQSDLSRRGVPTQAKGLCGSCNKPIAGQVVTALGRAWHPEHFVCGGCSTALGGSSFFEKDGAPFCPECYFERFSPRCGFCNQPIRHKMVTALGTHWHPEHFCCVSCGEPFGDEGFHEREGRPYCRRDFLQLFAPRCQGCQGPILDNYISALSLLWHPDCFVCRECFAPFSGGSFFEHEGRPLCENHFHARRGSLCPTCGLPVTGRCVSALGRRFHPDHFACTFCLRPLTKGSFQERAGKPYCQPCFLKLFG
modifications: Homo sapien
Question: Which results are given for B1?
Answer: AR transcriptional activity induction with ARA55 cotransfected ([1]; 10 nM DHT plus ARA55, DU145): 22.8 fold; further increase of the DHT induction of AR transcriptional activity by ARA55 ([1]; 10 nM DHT, dose-dependent, plateau at AR:ARA55 1:4.5, DU145): 5.3 fold; enhancement of transactivation by ARA55 ([1]; wtAR, DHT 10^-11 to 10^-8 M): 4–8 fold; effect of ARA55 on ER transcriptional activation [2]: marginal effect; enhancement of PR transcriptional activation by ARA55 [3]: to a lesser degree
